Test results from paper PMC5542437, “Assembly and stoichiometry of the core structure of the bacterial flagellar type III export gate complex” (PLoS Biology, 2017).
Numbering of substitutions follows the chain as printed. Names and notes keep the numbering of the source.

B1: His-FliP(F137A) (natural protein)
chain: QLPGLISQPLAGGGQSWSLSVQTLVFITSLTFLPAILLMMTSFTRIIIVFGLLRNALGTPSAPPNQVLLGLALFLTFFIMSPVIDKIYVDAYQPFSEQKISMQEALDKGAQPLRAAMLRQTREADLALFARLANSGPLQGPEAVPMRILLPAYVTSELKTAFQIGFTIFIPFLIIDLVIASVLMALGMMMVPPATIALPFKLMLFVLVDGWQLLMGSLAQSFYS
notes: FliP, Salmonella enterica; mature form; signal peptide (Met-1 to Gln-22) cleaved; His tag inserted between Gln-22 and Leu-23; source: Salmonella SJW1368, co-expressed with FliO, DDM-solubilised membranes; purified (Ni-NTA, SEC); not shown: His6 (LHHHHHH), internal (after residue 22), kept
B2: His-FliP(E178A) (natural protein)
chain: B1 chain with A116F, E157A
notes: as for B1
B3: His-FliP(F150A) (natural protein)
chain: B1 chain with A116F, F129A
notes: FliP, Salmonella enterica; mature form; signal peptide (Met-1 to Gln-22) cleaved; His tag inserted between Gln-22 and Leu-23; also called His-FliP(F1507A) [sic]; source: Salmonella SJW1368, co-expressed with FliO, DDM-solubilised membranes; purified (Ni-NTA, SEC); not shown: His6 (LHHHHHH), internal (after residue 22), kept
B4: FliF (natural protein)
chain: MSATASTATQPKPLEWLNRLRANPRIPLIVAGSAAVAIVVAMVLWAKTPDYRTLFSNLSDQDGGAIVAQLTQMNIPYRFANGSGAIEVPADKVHELRLRLAQQGLPKGGAVGFELLDQEKFGISQFSEQVNYQRALEGELARTIETLGPVKSARVHLAMPKPSLFVREQKSPSASVTVTLEPGRALDEGQISAVVHLVSSAVAGLPPGNVTLVDQSGHLLTQSNTSGRDLNDAQLKFANDVESRIQRRIEAILSPIVGNGNVHAQVTAQLDFANKEQTEEHYSPNGDASKATLRSRQLNISEQVGAGYPGGVPGALSNQPAPPNEAPIATPPTNQQNAQNTPQTSTSTNSNSAGPRSTQRNETSNYEVDRTIRHTKMNVGDIERLSVAVVVNYKTLADGKPLPLTADQMKQIEDLTREAMGFSDKRGDTLNVVNSPFSAVDNTGGELPFWQQQSFIDQLLAAGRWLLVLVVAWILWRKAVRPQLTRRVEEAKAAQEQAQVRQETEEAVEVRLSKDEQLQQRRANQRLGAEVMSQRIREMSDNDPRVVALVIRQWMSNDHE
notes: FliF, Salmonella enterica, transmembrane protein that forms the MS ring; also called MS ring; source: Salmonella SJW1368, pTrc99A-based plasmid, in DDM-solubilised membranes
B5: FlhB (natural protein)
chain: MAEESDDDKTEAPTPHRLEKAREEGQIPRSRELTSLLILLVGVCIIWFGGESLARQLAGMLSAGLHFDHRMVNDPNLILGQIILLIKAAMMALLPLIAGVVLVALISPVMLGGLIFSGKSLQPKFSKLNPLPGIKRMFSAQTGAELLKAVLKSTLVGCVTGFYLWHHWPQMMRLMAESPIVAMGNALDLVGLCALLVVLGVIPMVGFDVFFQIFSHLKKLRMSRQDIRDEFKESEGDPHVKGKIRQMQRAAAQRRMMEDVPKADVIVTNPTHYSVALQYDENKMSAPKVVAKGAGLIALRIREIGAEHRVPTLEAPPLARALYRHAEIGQQIPGQLYAAVAEVLAWVWQLKRWRLAGGQRPPQPENLPVPEALDFMNEKNTDG
notes: FlhB, Salmonella enterica, transmembrane export gate protein; its C-terminal cytoplasmic domain undergoes autocleavage between Asp-269 and Pro270 as printed; source: Salmonella SJW1368, pTrc99A-based plasmid, in DDM- or LMNG-solubilised membranes; co-purified
B6: FliR-FLAG (natural protein)
chain: MIQVTSEQWLYWLHLYFWPLLRVLALISTAPILSERAIPKRVKLGLGIMITLVIAPSLPANDTPLFSIAALWLAMQQILIGIALGFTMQFAFAAVRTAGEFIGLQMGLSFATFVDPGSHLNMPVLARIMDMLAMLLFLTFNGHLWLISLLVDTFHTLPIGSNPVNSNAFMALARAGGLIFLNGLMLALPVITLLLTLNLALGLLNRMAPQLSIFVIGFPLTLTVGIMLMAALMPLIAPFCEHLFSEIFNLLADIVSEMPINNNP
notes: FliR, Salmonella enterica, transmembrane export gate protein; also called FLAG-FliR (as printed in the methods); source: Salmonella SJW1368, pTrc99A-based plasmid, in DDM- or LMNG-solubilised membranes; co-purified (Ni-NTA, anti-FLAG gel, SEC)
B7: Tm-FliPP (periplasmic domain of FliP of Thermotoga maritima) (domain or fragment)
chain: YNNAITPYLNKETGYQEMFQRVNTRIREFMINELKNHHNEDNVFMLAKNSGIEIAKIEEAPNAVLIPAFVLGELEVAFK
notes: FliP of Thermotoga maritima (printed 'T. maritia'), periplasmic domain between TM-2 and TM-3; the atomic model holds Thr-122 to Lys-188; the N-terminal 13 residues of the construct are invisible; also called FliPP of T. maritia; Tm-FliPP tetramer; source: expression and purification described previously [37]
B8: FliG-His (natural protein)
chain: MSNLSGTDKSVILLMTIGEDRAAEVFKHLSTREVQALSTAMANVRQISNKQLTDVLSEFEQEAEQFAALNINANEYLRSVLVKALGEERASSLLEDILETRDTTSGIETLNFMEPQSAADLIRDEHPQIIATILVHLKRSQAADILALFDERLRHDVMLRIATFGGVQPAALAELTEVLNGLLDGQNLKRSKMGGVRTAAEIINLMKTQQEEAVITAVREFDGELAQKIIDEMFLFENLVDVDDRSIQRLLQEVDSESLLIALKGAEPPLREKFLRNMSQRAADILRDDLANRGPVRLSQVENEQKAILLIVRRLAETGEMVIGSGEDTYV
notes: FliG, Salmonella enterica, C ring protein; also called His-FliG; source: Salmonella SJW1368, pTrc99A-based plasmid, in DDM-solubilised membranes; not shown: His tag, C-terminal, kept

Tests used:
[1] = biological target: the molecule itself; experiment: SEC; Ni-purified His-FliP or FliO/His-FliP complexes (wild type and mutants) on Superdex 200 10/300; 20 mM Tris-HCl pH 8.0, 300 mM NaCl, 2 mM EDTA, 5% glycerol, 0.1% DDM
[2] = biological target: T1, FlhA (Salmonella enterica, UniProt P40729 1-692); experiment: SEC; Ni-purified FlhA/FliF/FliG-His complex on Superdex 200 10/300 (DDM); main peak examined by negative-stain EM; conditions: both partners purified
T1 construct: FlhA, Salmonella enterica, transmembrane export gate protein; source: Salmonella SJW1368, pTrc99A-based plasmid, in DDM- or LMNG-solubilised membranes; co-purified
T1 sequence: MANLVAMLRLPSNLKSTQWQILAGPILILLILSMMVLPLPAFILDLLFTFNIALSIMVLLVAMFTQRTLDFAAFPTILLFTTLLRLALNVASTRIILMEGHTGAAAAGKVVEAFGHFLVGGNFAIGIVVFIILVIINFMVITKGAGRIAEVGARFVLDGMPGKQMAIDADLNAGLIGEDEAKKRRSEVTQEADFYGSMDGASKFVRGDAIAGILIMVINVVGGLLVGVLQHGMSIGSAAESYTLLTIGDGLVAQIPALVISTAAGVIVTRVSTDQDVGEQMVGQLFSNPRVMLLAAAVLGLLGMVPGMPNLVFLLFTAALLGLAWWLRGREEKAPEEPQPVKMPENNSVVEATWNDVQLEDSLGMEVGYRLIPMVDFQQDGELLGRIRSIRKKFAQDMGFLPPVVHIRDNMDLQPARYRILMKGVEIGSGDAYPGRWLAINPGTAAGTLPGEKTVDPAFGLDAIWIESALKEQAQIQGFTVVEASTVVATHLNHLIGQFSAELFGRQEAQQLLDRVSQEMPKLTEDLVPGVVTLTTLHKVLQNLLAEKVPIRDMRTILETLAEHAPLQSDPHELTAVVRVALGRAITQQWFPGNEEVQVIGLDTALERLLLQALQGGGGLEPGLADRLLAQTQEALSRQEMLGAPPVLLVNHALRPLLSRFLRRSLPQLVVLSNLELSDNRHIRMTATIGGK

[3] = biological target: the molecule itself; experiment: negative-stain electron microscopy with 2D class averaging; purified SEC peak fractions, 1.0% uranyl acetate, 100 kV; autocorrelation analysis for the rotational symmetry of the FliP ring
[4] = biological target: T2, His-St-FliP (Salmonella FliP with a hexahistidine tag inserted between Gln-22 and Leu-23) (Salmonella enterica, UniProt P54700 22-245); experiment: pull-down; copurification from Salmonella SJW1368 co-expressing His-FliP with other export gate proteins; membranes solubilised with 1% DDM; Ni affinity, then anti-FLAG M2 affinity (eluted with FLAG peptide), then SEC on Superdex 200 10/300; SDS-PAGE with CBB; conditions: partners not purified
T2 construct: FliP, Salmonella enterica, 25-kDa transmembrane protein; mature form studied; the signal peptide (Met-1 to Gln-22) is cleaved during membrane insertion; tag LHHHHHH inserted between Gln-22 and Leu-23; Hexameric ring in SEC peak 2; also called His-FliP; FliP6 ring; source: Salmonella SJW1368, membranes solubilised with 1% DDM or 1% LMNG; purified (Ni-NTA, SEC); not shown: His6 (LHHHHHH), internal …
T2 sequence: B1 chain with A116F

[5] = biological target: the molecule itself; experiment: crystal structure; Tm-FliPP, 2.4 Å, SAD phasing with a Se-Met derivative; 2 tetramers in the asymmetric unit
[6] = biological target: B4; experiment: pull-down; Ni affinity copurification with FliG-His from SJW1368 co-expressing FlhA, FlhB, FliF, FliG-His, FliO, FliP, HA-FliQ and FliR-FLAG; membranes solubilised with 1% DDM; conditions: partners not purified

B1 was tested, and the “stoichiometry N” value [1] was 2.

For B2, the “stoichiometry N” value [1] was 2.

For B3, the “stoichiometry N” value [1] was 2.

B4: binds [2]; binds [3].

With B5 the “stoichiometry N” value [4] was ~2 copies of FlhB per 6 copies of FliP.

With B6 the “stoichiometry N” value [4] was ~2 copies of FliR per 6 copies of FliP.

B7 was tested, and the “stoichiometry N” value [5] was 4.

B8: binds [6].
